doi:10.1101/2021.04.15.439997 (bioRxiv, 2021)

Target: the molecule itself
Experiment: SEC-MALS

B1: Strep-tagged glucose-6-phosphate dehydrogenase (G6PDH) from Synechocystis (enzyme)
chain: not shown
stoichiometry N: 4
